These are literature values, as cited in PMC4321873.

The series has as its target Glu286 (UniProt position 286, FFGHPEVYIIV). The experiment in a line: kinetics.

In the case of “Cytochrome c oxidase (aa3-type), subunit I (Rhodobacter sphaeroides)”, the pKa entry was “∼9.4”.
